Common to all, as to experiment: direct ELISA, OD450
In one assay the target is T1, HcoV-NL63 S protein (HcoV-NL63, UniProt Q6Q1S2 19-1296).
T1 construct: also called hCov-NL63 S1
T1 sequence: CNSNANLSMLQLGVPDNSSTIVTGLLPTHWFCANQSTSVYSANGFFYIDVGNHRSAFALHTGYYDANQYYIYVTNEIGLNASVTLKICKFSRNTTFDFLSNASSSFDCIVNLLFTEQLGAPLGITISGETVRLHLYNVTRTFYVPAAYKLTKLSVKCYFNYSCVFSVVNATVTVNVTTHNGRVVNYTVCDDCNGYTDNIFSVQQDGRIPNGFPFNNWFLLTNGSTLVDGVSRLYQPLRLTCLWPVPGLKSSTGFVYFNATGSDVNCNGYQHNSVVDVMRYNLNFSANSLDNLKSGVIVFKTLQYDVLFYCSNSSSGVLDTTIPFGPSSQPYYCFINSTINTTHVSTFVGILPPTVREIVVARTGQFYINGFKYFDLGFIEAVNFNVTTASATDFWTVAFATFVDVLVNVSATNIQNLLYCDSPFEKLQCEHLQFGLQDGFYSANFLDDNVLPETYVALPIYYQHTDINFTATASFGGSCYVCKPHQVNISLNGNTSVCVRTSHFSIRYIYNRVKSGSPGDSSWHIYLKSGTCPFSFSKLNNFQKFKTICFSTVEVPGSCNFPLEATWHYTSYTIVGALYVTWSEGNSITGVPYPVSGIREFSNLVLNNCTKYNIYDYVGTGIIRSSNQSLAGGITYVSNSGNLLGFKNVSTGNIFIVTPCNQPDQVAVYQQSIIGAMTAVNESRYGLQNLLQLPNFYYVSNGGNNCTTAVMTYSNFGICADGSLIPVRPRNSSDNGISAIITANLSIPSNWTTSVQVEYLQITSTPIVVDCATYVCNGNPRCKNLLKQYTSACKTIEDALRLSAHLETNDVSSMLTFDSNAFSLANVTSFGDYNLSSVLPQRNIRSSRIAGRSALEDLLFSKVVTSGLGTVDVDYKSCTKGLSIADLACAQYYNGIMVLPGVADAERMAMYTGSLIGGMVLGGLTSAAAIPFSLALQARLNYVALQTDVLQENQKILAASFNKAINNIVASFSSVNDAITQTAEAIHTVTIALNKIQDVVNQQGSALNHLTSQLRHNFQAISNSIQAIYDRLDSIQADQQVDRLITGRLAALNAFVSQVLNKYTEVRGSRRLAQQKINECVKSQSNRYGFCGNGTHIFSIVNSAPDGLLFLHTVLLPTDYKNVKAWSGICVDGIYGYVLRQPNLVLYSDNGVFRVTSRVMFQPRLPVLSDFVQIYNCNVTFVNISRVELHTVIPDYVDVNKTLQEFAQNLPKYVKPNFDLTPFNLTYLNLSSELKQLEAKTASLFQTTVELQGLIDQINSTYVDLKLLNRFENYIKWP

In a further assay the target is T2, HcoV-229E S protein (HcoV-229E, UniProt P15423 16-1115).
T2 sequence: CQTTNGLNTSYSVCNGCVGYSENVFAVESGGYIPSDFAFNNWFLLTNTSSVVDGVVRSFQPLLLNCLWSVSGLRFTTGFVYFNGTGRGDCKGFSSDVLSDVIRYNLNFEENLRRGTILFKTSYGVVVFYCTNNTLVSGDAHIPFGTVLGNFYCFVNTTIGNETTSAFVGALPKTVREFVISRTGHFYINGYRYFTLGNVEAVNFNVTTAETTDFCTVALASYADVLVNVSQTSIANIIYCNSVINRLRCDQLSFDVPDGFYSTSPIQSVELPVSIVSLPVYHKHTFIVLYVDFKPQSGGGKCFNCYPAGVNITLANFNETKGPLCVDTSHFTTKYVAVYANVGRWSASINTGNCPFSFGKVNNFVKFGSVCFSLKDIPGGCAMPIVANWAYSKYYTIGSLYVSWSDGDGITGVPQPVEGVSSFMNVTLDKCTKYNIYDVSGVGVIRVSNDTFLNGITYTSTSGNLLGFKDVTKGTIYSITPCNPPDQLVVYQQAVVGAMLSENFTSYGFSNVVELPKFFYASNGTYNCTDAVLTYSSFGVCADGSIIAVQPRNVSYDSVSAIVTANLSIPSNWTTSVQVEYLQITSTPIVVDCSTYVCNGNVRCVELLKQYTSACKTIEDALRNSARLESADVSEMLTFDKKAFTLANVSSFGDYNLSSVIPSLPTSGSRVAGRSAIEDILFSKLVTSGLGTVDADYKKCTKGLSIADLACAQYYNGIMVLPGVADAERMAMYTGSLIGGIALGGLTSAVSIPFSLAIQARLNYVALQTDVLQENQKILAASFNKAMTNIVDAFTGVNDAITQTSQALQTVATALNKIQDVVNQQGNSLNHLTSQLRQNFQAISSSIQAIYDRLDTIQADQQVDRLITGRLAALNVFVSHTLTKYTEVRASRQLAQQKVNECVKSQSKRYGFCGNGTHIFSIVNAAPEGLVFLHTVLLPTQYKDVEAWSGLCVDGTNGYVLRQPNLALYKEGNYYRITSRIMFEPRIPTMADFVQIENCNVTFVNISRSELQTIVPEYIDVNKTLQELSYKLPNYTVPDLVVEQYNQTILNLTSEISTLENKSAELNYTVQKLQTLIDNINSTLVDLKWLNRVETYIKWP

A further assay addresses MERS-CoV Spike protein (MERS-CoV, UniProt K9N5Q8 18-1296).

B1: rabbit monoclonal antibody 1H1 against the SARS-CoV-2 S1 (antibody, V domains shown)
VH: QSLEESGGDLVKPGASLTLTCTASGFSFSSGYDMCWVRQAPGKGLEWIACIGTGSSGNIYYASWAKGRFTISKTSSTTVTLQMTSLTAADTATYFCARDDADYAGPDYFNLWGPGTLVTVSS
VL: DIVMTQTPASVSEPVGGTVTIKCQASESISNWLAWYQQKPGQPPKLLIYAAFTLASGVPSRFKGSGSGTQFTLTINGVECADAATYYCQQTYSSRDVDNVFGGGTEVVVKG
For B1, the binding result with HcoV-NL63 S protein, with HcoV-229E S protein and with MERS-CoV Spike protein was “no binding” each time.

B2: rabbit monoclonal antibody 1A3 against the SARS-CoV-2 S1 (antibody, V domains shown)
VH: QSLEESGGRLVTPGTPLTLTCTVSGFSFSSYHMGWVRQAPGEGLEWIGTLIGIAGNTYYASWAKGRFSISKTSTTVDLKMTSPTTEDTATYWCARIVTATFEFWGPGTLVTVSS
VL: AQVLTQTPSPVSAAVGGTVTISCQASQSVNMNLLSWFQQKPGQPPKLLIYQASNLASGVSARFKGSGSGTQFTLTINEIQCDDAATYYCQGDMGGWMFPFGGGTEVVVTG
Consider B2, for which the binding result in the assay with HcoV-NL63 S protein, with HcoV-229E S protein and with MERS-CoV Spike protein was “no binding” each time.

B3: rabbit monoclonal antibody 1D2 against the SARS-CoV-2 S1 (antibody, V domains shown)
VH: QSVEESGGRLVTPGTSLTLTCTVSGIDIETYWMSWVRQAPGKGLEWIAIITSHDHSGYANWAEGRFTISKTSTTVTLTITDLQPSDTGTYFCAKDVGHSTYDLWGPGTLVTVSS
VL: AAVLTQTPSPVSAAVGGTVTISCQSSESVLSNNRLSWYQQKPGQPPKLLIYAASTLASGVPSRFKGRGSGTQFTLTISDVQCDDAAMYVCAGAFSGSSDTRAFGGGTEVVVKG
With B3, the binding result with HcoV-NL63 S protein and with HcoV-229E S protein was “no binding” in each case.

B4: rabbit monoclonal antibody 7G5 against the SARS-CoV-2 S1 (antibody, V domains shown)
VH: QEQLEESGGDLVKPGASLTLTCTASGFSFSSAYYMCWVRQAPGKGLEWIACIGVDSGGNSYYASWAKGRFTISTTSSTTVTLQMTSLTAADKATYFCTRSFSLWGPGTLVTISS
VL: RKWLTQTASSVSAAVGGTVTISCQASQSVYNNDNLAWFQQRPGQPPKLLIYLASNLASGVPPRFSGSGSGTQFTLTISDVQCDDAATYYCLGGYDCSNADCHAFGGGTEVVVKG
On to B4, for which the binding result with HcoV-NL63 S protein, in the assay with HcoV-229E S protein and in the assay with MERS-CoV Spike protein was “no binding” throughout.

B5: rabbit monoclonal antibody 9A5 against the SARS-CoV-2 S1 (antibody, V domains shown)
VH: QSVEESGGRLVTPGTPLTLTCTVSGFSLSAYQMIWVRQTPGKGLEYIGIMHTGTSAYYANWAKGRFTISKTSSTTVDLKMTSPTTEDTATYFCGRNLNEGFTGAYPFNLWGPGTLVAVSS
VL: DVVMTQTPASVEAAVGGTVTIKCQASQSIGSNLAWYQKKPGQPPKLLIYQASNLASGVPSRFKGSGSGTQFTLTISDLECADAATYYCQMNYYISSSYTYTFGGGTEVVVKG
In the case of B5, the binding result with HcoV-NL63 S protein, with HcoV-229E S protein and with MERS-CoV Spike protein was “no binding” throughout.

The record behind these values is patent publication US20220056111A1 (YUROGEN BIOSYSTEMS, published 2022).
